Reference: patent US9701733B2, “Maspin-based treatment of cancer” (Northwestern University, priority 2011, dated 2017)
Numbering of substitutions follows the chain as printed. Names and notes keep the numbering of the source. “Also recorded” adds a separate entry of the source.

Key:
MCF10A cells = assay: Adhesion assay of MCF10A cells on self-deposited (endogenous) matrix; type: cell-based, human; settings: for effect of maspin-derived competitive peptide on MCF10A cell adhesion: cells pre-incubated with peptide, adhesion measured after 30 min, self-deposited matrix; for effect of GST-maspin mutant on MCF10A cell adhesion: compared to wild-type GST-maspin; for effect of GST-maspin mutant on MCF10A cell adhesion / reduction of MCF10A cell adhesion compared to WT GST-maspin: endogenous matrix; for reduction of MCF10A cell adhesion compared to WT GST-maspin: recombinant protein
Description: Assays utilizing endogenous ECM proteins generated by MCF10A cells were performed as previously described (Langhofer et al. (1993) J Cell Sci 105 (Pt 3), 753-764; herein incorporated by reference in its entirety). MCF10A cells were plated in 96-well dishes and allowed to reach confluence. Cells were washed with PBS and treated for 5 min with fresh sterile 20 mM NH4OH, followed by extensive water washes. Wells were blocked with heat-denatured BSA (10 mg/ml) for 1 hr at room temperature. Subconfluent cultures were trypsinized, washed with 37° C. serum-free DMEM/F12 medium, and incubated with either antibodies or recombinant proteins (500 nM) for 30 min at 37° C. (when assaying endogenous maspin enzyme-free cell dissociation solution was used instead of trypsin). In all assays, 2.0×10^4 cells were plated in triplicates and allowed to adhere for 30 min at 37° C. The GST protein was used as a control. Wells were washed with 37° C. serum-free DMEM/F12 and adhered cells were fixed with 5% gluteraldehyde and stained with crystal violet dye. Cell adhesion was determined by the reading at 590 nm subtracted by the blank value (determined by BSA-coated wells, 5% of maximal cell adhesion). Cell adhesion was plotted as percentage of the corresponding control value. Cell surface stripping of uPA from uPAR was conducted as previously described (Stoppelli et al. (1986) Cell 45, 675-684; herein incorporated by reference in its entirety). Subconfluent cultures were washed twice with DMEM/F12 supplemented with 20 mM HEPES and 1 mg/ml BSA. Then, cells were incubated with 50 mM glycine-HCl (pH 3.0) with 100 mM NaCl at 25° C. for 2 min and the reaction was halted by neutralizing with 500 mM HEPES (pH 7.4). In the function blocking studies, cells were first incubated with the function blocking antiuPAR or control rabbit IgG for 10 min, uPA and recombinant GST-maspin was added for another 20 min.

HUVEC endothelial cells = assay: HUVEC tube formation assay on MatriGel; type: cell-based; settings: for effect on HUVEC tube formation: 1.0 uM; for potency on tube angiogenesis: compared to the G-Helix peptide or GST-maspin (FIG. 7)
Description: HUVECs were plated on MatriGel for tube formation assay. Various peptides were tested for the potency on tube angiogenesis.
HUVEC endothelial cells were used to test the effect of synthetic maspin peptides on HUVEC tube formation assay in cell culture systems. Random peptide was used as a negative control and maspin G-helix peptide as a positive control. G-Helix was previously found to be effective in inhibiting endothelial cell migration, thereby mimicking maspin effect against angiogenesis. […] At 1.0 uM, G-helix was not effective.

WT MEF cell surface = assay: 125I-GST-maspin binding to wild type MEF cell surface; set-up: species or system mouse; settings: WT MEFs; 4° C., 90 min; <500 nM
Description: (§1) Bacterial recombinant GST-maspin was labeled with ^125I as described previously (Conlon, M. (2002) Preparation of ^125I-Labeled Peptides and Proteins with High Specific Activity using IODO-GEN, 2nd Edition Ed. The Protein Protocols Handbook (Walker, J. M., Ed.), Humana Press Inc, Totowa, N.J.; herein incorporated by reference in its entirety). Wild type (WT) and uPAR−/− mouse embryo fibroblasts (MEFs) (5.0×10^4 cells) were cultured in DMEM with 10% FBS on 96-well plate overnight. Cells were chilled on ice for 30 min, washed three times with ice-cold DMEM, and then blocked on ice for 60 min using blocking buffer (DMEM containing 5% heat inactivated BSA). MEFs were incubated with increasing concentrations of ^125I-GST-maspin in blocking buffer at 4° C. for 90 min. After incubation, unbound ^125I-GST-maspin protein was removed by washing three times with blocking buffer. Specific ^125I-GST-maspin binding was determined by subtracting the detected radioactivity by the nonspecific binding (determined in the presence of a 50-fold excess of non-labeled GST-maspin). In the studies evaluating the uPA/uPAR interactions, ^125I-GST-maspin was treated with ABS4A and S-20 (Santa Cruz) antibodies, which block the RCL and N-terminal domains, prior to adding to WT MEF cells. In one set, WT MEF cells were treated with an anti-mouse uPAR antibody (R&D), which blocks uPA binding to uPAR. […]

uPAR-/- MEFs = assay: 125I-GST-maspin binding to uPAR-/- MEF cell surface; set-up: species or system mouse; settings: 4° C., 90 min, <500 nM
Description: as §1

“TDTKPVQMMNMEATFCMGNIDSI (listed as Homo sapiens) [190-211]” was tested, and the “effect of maspin-derived competitive peptide on MCF10A cell adhesion” value (MCF10A cells) was “inhibited cell adhesion; also recorded: competed with GST-maspin”.

“NPSTMANAKVKLSIPK (listed as Homo sapiens) [peptide 260-275]” was tested, and the “effect of maspin-derived competitive peptide on MCF10A cell adhesion” value (MCF10A cells) was “inhibited cell adhesion” and the “effect of maspin-derived competitive peptide on MCF10A cell adhesion” value (MCF10A cells; listed as 260-275 peptide) was “reduced”.

With “STANAKVKLSIP (listed as Homo sapiens) [peptide X, synthetic maspin mimetic peptide]” the “effect on HUVEC tube formation” value (HUVEC endothelial cells) was “highly effective” and the “potency on tube angiogenesis” value (HUVEC endothelial cells) was “highly potent”.

“peptide 169-189: peptide corresponding to maspin residues 169-189 (s3C) (GKWMKKFSESETKECPFRVNK; UniProt P36952 169-189, looked up, fragment)” was tested, and the “effect of maspin-derived competitive peptide on MCF10A cell adhesion” value (MCF10A cells) was “not s3C (peptide 169-189) was important”.

“peptide 181-202: competitive peptide corresponding to maspin amino acid residues 181-202 (KECPFRVNKTDTKPVQMMNMEA; UniProt P36952 181-202, looked up, fragment)” was tested, and the “effect of maspin-derived competitive peptide on MCF10A cell adhesion” value (MCF10A cells) was “inhibited cell adhesion; also recorded: competed with GST-maspin”.

In the case of “TANAEVKLSIPK (listed as Homo sapiens) [peptide Y, synthetic maspin mimetic peptide]”, the “effect on HUVEC tube formation” value (HUVEC endothelial cells) is reported as “highly effective” and the “potency on tube angiogenesis” value (HUVEC endothelial cells) is reported as “highly potent”.

B1: single mutant (E201K): GST-maspin point mutant E201K (protein, UniProt P36952 1-375, looked up, variant E201K)
Serpin B5: MDALQLANSAFAVDLFKQLCEKEPLGNVLFSPICLSTSLSLAQVGAKGDTANEIGQVLHFENVKDVPFGFQTVTSDVNKLSSFYSLKLIKRLYVDKSLNLSTEFISSTKRPYAKELETVDFKDKLEETKGQINNSIKDLTDGHFENILADNSVNDQTKILVVNAAYFVGKWMKKFSESETKECPFRVNKTDTKPVQMMNMKATFCMGNIDSINCKIIELPFQNKHLSMFILLPKDVEDESTGLEKIEKQLNSESLSQWTNPSTMANAKVKLSIPKFKVEKMIDPKACLENLGLKHIFSEDTSDFSGMSETKGVALSNVIHKVCLEITEDGGDSIEVPGARILQHKDELNADHPFIYIIRHNKTRNIIFFGKFCSP
modifications: GST tag
B1 was tested, and the “effect of GST-maspin mutant on MCF10A cell adhesion” value (shortened to “effect of GST-maspin mutant”) (MCF10A cells) was “inhibited cell adhesion; also recorded: significantly reduced” and the “reduction of MCF10A cell adhesion compared to WT GST-maspin” value (“reduction of MCF10A cell adhesion” below) (MCF10A cells) was 16%.

B2: double mutant (K268E, K270E): GST-maspin mutant K268E, K270E (protein, UniProt P36952 1-375, looked up, variant K268E K270E)
Serpin B5: B1 Serpin B5 with K201E, K268E, K270E
modifications: GST fusion
With B2 the “effect of GST-maspin mutant” value (MCF10A cells) was “inhibited cell adhesion”, the “effect of GST-maspin mutant” value (MCF10A cells; listed as double mutant GST maspin (K268E, K270E)) was “reduced” and the “reduction of MCF10A cell adhesion” value (MCF10A cells) was 17%.

B3: GST-maspin: Glutathione S-transferase (GST)-tagged recombinant wild-type maspin; 125I-labeled for binding assay (protein, UniProt P36952 1-375, looked up)
Serpin B5: B1 Serpin B5 with K201E
modifications: GST tag; 125I label
In the case of B3, the “specific 125I-GST-maspin binding to cell surface” value (WT MEF cell surface) is reported as “displayed specific 125I-GST-maspin binding”, the “specific 125I-GST-maspin binding to cell surface” value (uPAR-/- MEFs) is reported as “absent of any specific 125I-GST-maspin binding” and the “maspin-induced MCF10A cell adhesion after stripping endogenous uPA” value (MCF10A cells; endogenous uPA acid-stripped before GST-maspin) is reported as “substantially blocks”. The “maspin-mediated adhesion of uPA-stripped MCF10A cells after addition of exogenous uPA” value (MCF10A cells; uPA acid-stripped, exogenous uPA 800 nM) was 154.06 % of GST control.

B4: triple mutant (E201K, K268E, K270E): GST-maspin mutant E201K, K268E, K270E (protein, UniProt P36952 1-375, looked up, variant E201K K268E K270E)
Serpin B5: B1 Serpin B5 with K268E, K270E
modifications: GST fusion
For B4, the “effect of GST-maspin mutant” value (MCF10A cells) was “inhibited cell adhesion” and the “reduction of MCF10A cell adhesion” value (MCF10A cells) was “approximately 28%”.
